From US6066621A, “Synthetic peptides for the treatment of myasthenia gravis” (Yeda Research and Development Co. Ltd., priority 1995, dated 2000)
One block for each molecule: values may come before it. Where no end group is shown, it is not given here. The star is where a group is joined. Biotin = O=C1N[C@H]2[C@H](CS[C@H]2CCCCC(=O)*)N1; Ahx = NCCCCCC(=O)O

Tests used:
[1] = tested on: peripheral blood lymphocytes (PBL) of myasthenia gravis patients; conditions: 96 h
Protocol: Peripheral blood lymphocytes (PBL) of myasthenia gravis patients and of the appropriate control donors (2×10^5 cells/well) were assayed in microtiter plates in 0.2 ml enriched medium containing 10% autologous serum, in the presence of different doses of the peptides p195-212 and the analog 207Ala for 96 h, followed by an overnight pulse with 0.5 μCi of ^3 H-thymidine. Cells were harvested and radioactivity determined. Inhibition of the proliferative responses was done by adding different doses of 207Ala into the incubation mixture at the same time as the pathogenic peptide p195-212.

[2] = target: p259-271 presented by antigen-presenting cells of MG patients (HLA class II) (human)
[3] = target: p195-212 presented by antigen-presenting cells of MG patients (HLA class II) (human)
[4] = target: MHC class II on human antigen presenting cells
[5] = target: MHC class II of SJL mice (on antigen presenting cells); test: flow cytometry, biotinylated peptide on SJL antigen presenting cells, PE-streptavidin
[6] = target: MHC Class II molecules of BALB/c mice (on syngeneic spleen cells used as antigen-presenting cells)
[7] = target: MHC Class II molecules of BALB/c mice (on syngeneic spleen cells used as antigen-presenting cells); remark: listed apart in the source
[8] = target: MHC Class II molecules of BALB/c mice (on syngeneic spleen cells used as antigen-presenting cells); remark: listed apart in the source
[9] = target: MHC class II of SJL mice (on antigen presenting cells)

Protocol for T cell line TCSJL195-212: T cell lines and clones specific to p195-212 were established from lymph node cells of high (SJL) responder mouse strain by the method described by Brocke et al. (1990a), supra, and designated TCSJL195-212 line (Mozes, E. et al. (1991), supra; see also Kirshner et al. (1994), supra).
Cells (10^4 per well) of the T cell Line TCSJL195-212 or TCBALB/c259-271 were incubated in the presence of irradiated syngeneic spleen cells (0.5×10^6), either p195-212 or p259-271 (10 μM) and various concentrations of the dual epitope analogs 207Ala-262Lys or 262Lys-207Ala for 48 h. Thereafter, ^3 H-thymidine was added and 16 h later plates we harvested.

Molecule: DTPYLDITYHFVAQRLPL [207Ala]
- inhibition of proliferative responses of PBL, all three patients [1]: 77-100%
- inhibition of the proliferative response of the TCSJL195-212 line to p195-212 (T cell line TCSJL195-212): more than 99%

- proliferative response of PBL, stimulation index (SI) (stimulation index) [2]: 4.1
- proliferative response of PBL, stimulation index (SI) (stimulation index) [3]: 6.3
Molecule: peripheral blood lymphocytes (PBL) of myasthenia gravis patients (cells without a defined receptor)

- % inhibition of the p259-271 induced proliferative response of PBL (three MG patients) [4]: 85.6 % inhibition
B1: 266Asp analog of p259-271 (peptide)
peptide: VIVELIPDTSSAV

- fold affinity against 207Ala-262Lys [5]: 10 fold
B2: biotinylated dual analog 262Lys-207Ala (peptide)
peptide: {Biotin-Ahx}-VIVKLIPSTSSAVDTPYLDITYHFVAQRLPL

- inhibition of the helper activity of TCBALB/c259-271 (p259-271 specific antibody production) [6]: < 80 % inhibition
- % inhibition of the p259-271 induced proliferative response of PBL (three MG patients) [4]: 100 % inhibition
- inhibition of the proliferative response of lymph node cells of p259-271 immunized BALB/c mice to p259-271 [7]: < 64.7 % inhibition
- % of inhibition of the p259-271 specific proliferative response of TCBALB/c259-271 [8]: < 93 % inhibition
B3: 262Lys analog of p259-271 (peptide)
peptide: VIVKLIPSTSSAV

- % inhibition of the p259-271 induced proliferative response of PBL (three MG patients) [4]: 78 % inhibition
B4: 262Asp analog of p259-271 (peptide)
peptide: VIVDLIPSTSSAV

- inhibition of the p195-212 specific proliferative response of TCSJL195-212 [9]: > 99 % inhibition
B5: 207Ala analog of p195-212 (peptide)
peptide: DTPYLDITYHFVAQRLPL
